Experimental data reported in US20220073621A1 (EUCURE BEIJING BIOPHARMA, published 2022).

These binders were tested against T1, hPD-L1-His (human, UniProt Q9NZQ7 19-238) (assay: SPR (Biacore T200), antibody on Protein A chip, hPD-L1-His injected, 1:1 fit).
T1 construct: Bought protein; also called hPD-L1-His (manufactured by Edison); not shown: His tag
Experimental: Subsequently, the binding affinity of the anti-PD-L1 chimeric antibody, humanized antibody, and marketed control antibody to hPD-L1-His (manufactured by Edison) were determined by surface plasmon resonance (Biacore T200 biosensor, Biacore, INC, Piscataway N.J.) equipped with pre-immobilized Protein A sensor chips.
The detection results were read after the chip was regenerated with pH 2.0 glycine (30 μl/min, 10-20 s). Kinetic association rates (kon) and dissociation rates (koff) were obtained simultaneously by fitting the data globally to a 1:1 Langmuir binding model (Karlsson, R. Roos, H. Fagerstam, L. Petersson, B., 1994. Methods Enzymology 6. 99-110) using Biacore T200 Evaluation Software 3.0. Affinities were deduced from the quotient of the kinetic rate constants (KD=koff/kon).

T1 sequence (Q9NZQ7 19-238 limits assumed): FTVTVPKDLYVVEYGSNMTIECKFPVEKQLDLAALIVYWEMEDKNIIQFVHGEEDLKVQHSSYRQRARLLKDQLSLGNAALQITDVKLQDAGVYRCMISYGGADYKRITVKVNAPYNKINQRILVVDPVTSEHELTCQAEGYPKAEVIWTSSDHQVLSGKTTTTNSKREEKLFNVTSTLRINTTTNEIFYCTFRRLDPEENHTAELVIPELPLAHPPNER

Binder | Kd [nM] | koff [s⁻¹] | kon [M⁻¹ s⁻¹]
7E4-H2K2-IgG1 (antibody, V domains shown) VH: QVQLVQSGAEVKKPGASVKVSCKASGFKFTDYAIHWVRQAPGKSLEWMGVISIYYGEASYNQKFKDRVTLTVDTSASTAYMELSSLRSEDTAVYYCAREDYYGSSSYFDYWGQGTLVTVSS VL: DNVLTQSPSFLSASVGDRVTMTCSASSSVSSSYLHWYQQKPGASPKPLIHRTSNLASGVPSRFSGSGSGTEFTLTISSLQPEDFATYYCQQWSGYPYTFGGGTKLEIK | 21.9 | 0.0027 | 123000
6A11-H2K3-IgG1 (antibody, V domains shown) VH: EVQLVESGGGLVQPGGSLRLSCAASGFTFSSFGMHWVRQAPGKGLEWVSYISSGSNTIYYADTVKGRFTISRDNAKNSLYLQMNSLRAEDTAVYYCTRNGYDGWYAMDYWGQGTTVTVSS VL: EIVLTQSPATLSASPGERATLSCSASSSVSYIHWFQQKPGQSPRRWIYDTSKLASGIPARFSGSGSGTDYTLTISSMEPEDFATYYCQQWSTNPFTFGQGTKLEIKR | 8.07 | 0.0013 | 162000
6A11-H3K4-IgG1 (antibody, V domains shown) VH: EVQLVESGGGLVQPGGSRRLSCAASGFTFSSFGMHWVRQAPGKGLEWVAYISSGSNTIYYADTVKGRFTISRDNAKNSLYLQMNSLRAEDTAVYYCTRNGYDGWYAMDYWGQGTTVTVSS VL: EIVLTQSPATLSASPGERATLSCSASSSVSYIHWFQQKPGQSPRRWIYDTSKLASGIPARFSGSGSGTSYTLTISSMEPEDAATYYCQQWSTNPFTFGQGTKLEIKR | 6.52 | 0.00168 | 258000
6A11-H4K4-IgG1 (antibody, V domains shown) VH: EVQLVESGGGLVQPGGSRRLSCAASGFTFSSFGMHWVRQAPGKGLEWVAYISSGSNTIYYADTVKGRFTISRDNPKNSLYLQMNSLRAEDTAIYYCTRNGYDGWYAMDYWGQGTTVTVSS VL: EIVLTQSPATLSASPGERATLSCSASSSVSYIHWFQQKPGQSPRRWIYDTSKLASGIPARFSGSGSGTSYTLTISSMEPEDAATYYCQQWSTNPFTFGQGTKLEIKR | 9.59 | 0.002 | 208000
6A11-H1K4-IgG1 (antibody, V domains shown) VH: EVQLVESGGGLVQPGGSLRLSCAASGFTFSSFGMHWVRQAPGKGLEWVSYISSGSNTIYYADTVKGRFTISRDNAKNSLYLQMNSLRAEDTAVYYCARNGYDGWYAMDYWGQGTTVTVSS VL: EIVLTQSPATLSASPGERATLSCSASSSVSYIHWFQQKPGQSPRRWIYDTSKLASGIPARFSGSGSGTSYTLTISSMEPEDAATYYCQQWSTNPFTFGQGTKLEIKR | 8.29 | 0.00124 | 149000
6A11-H3K3-IgG1 (antibody, V domains shown) VH: EVQLVESGGGLVQPGGSRRLSCAASGFTFSSFGMHWVRQAPGKGLEWVAYISSGSNTIYYADTVKGRFTISRDNAKNSLYLQMNSLRAEDTAVYYCTRNGYDGWYAMDYWGQGTTVTVSS VL: EIVLTQSPATLSASPGERATLSCSASSSVSYIHWFQQKPGQSPRRWIYDTSKLASGIPARFSGSGSGTDYTLTISSMEPEDFATYYCQQWSTNPFTFGQGTKLEIKR | 4.91 | 0.0013 | 265000
6A11-H4K3-IgG1 (antibody, V domains shown) VH: EVQLVESGGGLVQPGGSRRLSCAASGFTFSSFGMHWVRQAPGKGLEWVAYISSGSNTIYYADTVKGRFTISRDNPKNSLYLQMNSLRAEDTAIYYCTRNGYDGWYAMDYWGQGTTVTVSS VL: EIVLTQSPATLSASPGERATLSCSASSSVSYIHWFQQKPGQSPRRWIYDTSKLASGIPARFSGSGSGTDYTLTISSMEPEDFATYYCQQWSTNPFTFGQGTKLEIKR | 7.09 | 0.00165 | 233000
6A11-H2K4-IgG1 (antibody, V domains shown) VH: EVQLVESGGGLVQPGGSLRLSCAASGFTFSSFGMHWVRQAPGKGLEWVSYISSGSNTIYYADTVKGRFTISRDNAKNSLYLQMNSLRAEDTAVYYCTRNGYDGWYAMDYWGQGTTVTVSS VL: EIVLTQSPATLSASPGERATLSCSASSSVSYIHWFQQKPGQSPRRWIYDTSKLASGIPARFSGSGSGTSYTLTISSMEPEDAATYYCQQWSTNPFTFGQGTKLEIKR | 7.01 | 0.00153 | 218000
6A11-H1K3-IgG1 (antibody, V domains shown) VH: EVQLVESGGGLVQPGGSLRLSCAASGFTFSSFGMHWVRQAPGKGLEWVSYISSGSNTIYYADTVKGRFTISRDNAKNSLYLQMNSLRAEDTAVYYCARNGYDGWYAMDYWGQGTTVTVSS VL: EIVLTQSPATLSASPGERATLSCSASSSVSYIHWFQQKPGQSPRRWIYDTSKLASGIPARFSGSGSGTDYTLTISSMEPEDFATYYCQQWSTNPFTFGQGTKLEIKR | 7.8 | 0.00113 | 145000

The next lines start with the values.

Kd [nM] | koff [s⁻¹] | kon [M⁻¹ s⁻¹] | Binder
26.5 | 0.00313 | 118000 | 7E4-H1K1-IgG1 (antibody, V domains shown) VH: QVQLVQSGAEVKKPGASVKVSCKASGFKFTDYAIHWVRQAPGQSLEWMGVISIYYGEASYNQKFKDRVTLTVDTSASTAYMELSSLRSEDTAVYYCAREDYYGSSSYFDYWGQGTLVTVSS VL: DNQLTQSPSFLSASVGDRVTITCSASSSVSSSYLHWYQQKPGAAPKPLIHRTSNLASGVPSRFSGSGSGTEFTLTISSLQPEDFATYYCQQWSGYPYTFGGGTKLEIK
19.8 | 0.0025 | 126000 | 7E4-H1K2-IgG1 (antibody, V domains shown) VH: QVQLVQSGAEVKKPGASVKVSCKASGFKFTDYAIHWVRQAPGQSLEWMGVISIYYGEASYNQKFKDRVTLTVDTSASTAYMELSSLRSEDTAVYYCAREDYYGSSSYFDYWGQGTLVTVSS VL: DNVLTQSPSFLSASVGDRVTMTCSASSSVSSSYLHWYQQKPGASPKPLIHRTSNLASGVPSRFSGSGSGTEFTLTISSLQPEDFATYYCQQWSGYPYTFGGGTKLEIK
13.3 | 0.0017 | 128000 | 7E4-H1K3-IgG1 (antibody, V domains shown) VH: QVQLVQSGAEVKKPGASVKVSCKASGFKFTDYAIHWVRQAPGQSLEWMGVISIYYGEASYNQKFKDRVTLTVDTSASTAYMELSSLRSEDTAVYYCAREDYYGSSSYFDYWGQGTLVTVSS VL: ENVLTQSPSFLSASVGDRVTMTCSASSSVSSSYLHWYQQKSGASPKPLIHRTSNLASGVPSRFSGSGSGTEYTLTISSVQPEDFATYYCQQWSGYPYTFGGGTKLEIK
4.64 | 0.00266 | 573000 | 23-2A6-mHvKv-IgG1-N297A (antibody, V domains shown) VH: QVQLKESGPGLVAPSQSLSITCTVSGFSLTSYDISWIRQPPGKGLEWLGAIWTGGGTNYNSAFMSRLSISKDNSKSQVFLKMNSLQTDDTAIYYCVRDPYYYAMDYWGQGTSVTVSS VL: DIQMNQSPSSLSASLGDTITITCHASQNLNVWLSWYQQKPGNIPKLLIYKASNLHTGVPSRFSGSGSGTGFTLTISSLQPEDIATYYCQQGQSYPRTFGGGTKLEIK
1.6 | 0.000196 | 122000 | 33-10C9-mHvKv-IgG1-N297A (antibody, V domains shown) VH: QVQLQQPGAELVKPGSSVKLSCKASGYTFTTYYIYWVKQRPGQGLEWIGGINPYNGGTSFNEKFESKATLTVDISSSTAFMQLSSLTSEDSAVYYCTRDGNYVDYWGQGTTLTVSS VL: QIVLTQSPAIMSASPGEKVTITCSASSTVSYVHWLQQKPDTSPKLWIYSTSNLASGVPARFSGSGSGTSYSLTISRMEAEDAATYYCQQRSSSPPTFGSGTKLEIK
